Measured values published in paper PMC4223631 (Developmental cell, 2014).

Biological target: rabbit muscle actin (filaments: ADP-F-actin or ADP•BeFx-F-actin) (rabbit, UniProt P68135 1-377)
Assay: co-sedimentation

B1: cofilin-2 (mouse, recombinant wild type) (natural protein)
chain: MASGVTVNDEVIKVFNDMKVRKSSTQEEIKKRKKAVLFCLSDDKRQIIVEEAKQILVGDIGDTVEDPYTSFVKLLPLNDCRYALYDATYETKESKKEDLVFIFWAPESAPLKSKMIYASSKDAIKKKFTGIKHEWQVNGLDDIKDRSTLGEKLGGSVVVSLEGKPL
B1 was tested, and the “KD of a small fraction (~20%) of the cofilin” value was roughly 1 µM and the “KD of the majority of the cofilin” value was roughly 5 µM.
